Patent US20260167731A1 (DOMAIN THERAPEUTICS, published 2026)
Values joined by “and” are separate entries in the source; they are usually repeats but may differ in a detail not shown here. Identical values can stand only once.

Assays:
human CCR8 [1] = molecular target: T1, human CCR8 (human, UniProt P51685 1-355); experiment: cell-based or functional assay
human CCR8 [2] = molecular target: T1, human CCR8; experiment: cell-based or functional assay; remark: listed apart in the source
human CCR8 [3] = molecular target: T1, human CCR8; experiment: cell-based or functional assay; remark: listed apart in the source
human CCR8 [4] = molecular target: T1, human CCR8; experiment: cell-based or functional assay; remark: listed apart in the source
human CCR8 [5] = molecular target: T1, human CCR8; experiment: cell-based or functional assay; remark: listed apart in the source
human CCR8 [6] = molecular target: T1, human CCR8; experiment: flow cytometry, hCCR8 transfected CHOK1 cells
Summary of the method: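 Bound mAb detected with Alexa Fluor 488 anti-mouse IgG or PE anti-human IgG Fc (30 min, 4 °C) by flow cytometry; isotype mAbs controlled unspecific binding.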

[7] = molecular target: pm5, modified CCR8 related peptide (human, sulfated tyrosines at Y15 and Y17); experiment: ELISA on coated CCR8 peptide (500 ng/mL), OD [cont.]
Summary of the method: (§1)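 OD after 15 min TMB development reflects binding of each anti-CCR8 mAb, tested at 1 μg/mL and diluted 1/10, to CCR8-related peptides adsorbed at 500 ng/mL from carbonate/bicarbonate buffer. Antibody incubation lasted 90 min at room temperature.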

[8] = molecular target: pm6, modified CCR8 related peptide (human, sulfated tyrosines at Y16 and Y17); experiment: as above
Summary of the method: as §1

[9] = molecular target: pm8, modified CCR8 related peptide (human, sulfated tyrosines at Y15, Y16 and Y17); experiment: as above
Summary of the method: as §1

[10] = molecular target: T2, pwt1, unmodified CCR8 related peptide (human, none (non-sulfated Y15, Y16, Y17)); experiment: as above
T2 construct: First 34 amino acids of human CCR8, synthetic; also called unmodified peptide
Summary of the method: as §1

[11] = molecular target: pm1, modified CCR8 related peptide (human, sulfated tyrosine at Y15); experiment: as above
Summary of the method: as §1

[12] = molecular target: pm2, modified CCR8 related peptide (human, sulfated tyrosine at Y16); experiment: as above
Summary of the method: as §1

[13] = molecular target: pm3, modified CCR8 related peptide (human, sulfated tyrosine at Y17); experiment: as above
Summary of the method: as §1

[14] = molecular target: pm4, modified CCR8 related peptide (human, sulfated tyrosines at Y15 and Y16); experiment: as above
Summary of the method: as §1

human CCR8 [15] = molecular target: T1, human CCR8; experiment: flow cytometry, inhibition of hCCL1-AF647 binding to hCCR8 CHO cells
Summary of the method: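 hCCR8-transfected CHO cells preincubated 30 min at 4 °C with anti-CCR8 mAb from 10 μg/mL, 1/3 dilutions, 8 concentrations. Bound CCL1 quantified by flow cytometry. IC₅₀ from sigmoidal variable-slope fit.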

human CCR8 [16] = molecular target: T1, human CCR8; experiment: cell-based or functional assay; remark: listed apart in the source

Chain of pm2, modified CCR8 related peptide (human, sulfated tyrosine at Y16) (peptide, as listed by the source): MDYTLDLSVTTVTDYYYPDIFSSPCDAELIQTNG
Chain of pm6, modified CCR8 related peptide (human, sulfated tyrosines at Y16 and Y17) (peptide, as listed by the source): as above
Chain of pm1, modified CCR8 related peptide (human, sulfated tyrosine at Y15) (peptide, as listed by the source): as above
Chain of pm3, modified CCR8 related peptide (human, sulfated tyrosine at Y17) (peptide, as listed by the source): as above
Chain of pm5, modified CCR8 related peptide (human, sulfated tyrosines at Y15 and Y17) (peptide, as listed by the source): as above
Chain of pm8, modified CCR8 related peptide (human, sulfated tyrosines at Y15, Y16 and Y17) (peptide, as listed by the source): as above
T2 sequence (peptide, as listed by the source): as above
Chain of pm4, modified CCR8 related peptide (human, sulfated tyrosines at Y15 and Y16) (peptide, as listed by the source): as above

Row | IC50, CCL1 induced hCCR8 Gi2 signaling (BRET, HEK-293) (human CCR8 [3]) | hCCL1 (100 nM) residual response in %, Protocol #2, mAb 0.08 µg/mL (0.53 nM) (human CCR8 [4]) [%] | hCCL1 (100 nM) residual response in %, Protocol #2, mAb 0.4 µg/mL (2.67 nM) (human CCR8 [4]) [%] | hCCL1 (100 nM) residual response in %, Protocol #2, mAb 10 µg/mL (66.7 nM) (human CCR8 [4]) [%] | hCCL1 (100 nM) residual response in %, Protocol #3, mAb 0.05 µg/mL (0.33 nM) (human CCR8 [4]) [%] | hCCL1 (100 nM) residual response in %, Protocol #3, mAb 0.5 µg/mL (3.33 nM) (human CCR8 [4]) [%] | hCCL1 (100 nM) residual response in %, Protocol #3, mAb 5 µg/mL (33.3 nM) (human CCR8 [4]) [%] | Top plateau values in presence of 5 µg/mL mAb (% of hCCL1 (100 nM)), protocol #3 (human CCR8 [5]) [%] | % positive cells (human CCR8 [6]) [%] | MFI fold change to isotype ctrl (human CCR8 [6]) [fold] | binding result [7] | binding result [8] | binding result [9] | binding result [10] | binding result [11] | binding result [12] | binding result [13] | binding result [14] | IC50 (human CCR8 [15]) | IC50, CCL1 induced hCCR8 Gi2 signaling (BRET) at pH 6.5 (human CCR8 [16]) | Binder | other results
1 |  |  |  |  |  |  |  |  |  |  |  |  |  |  |  |  |  |  |  |  | chimeric anti-CCR8 mAb 2-18 (antibody, human IgG1, kappa) heavy: not shown light: DVVMTQTPLSLPVSLGDQASISCRCTQSLLHTNGDTYLHWYLQKPGQSPKLLIYKVSNRFSGVPDRFSGSGSGTDFTLKISRVEAEDLGVYFCSQSTHVPYTFGGGTKLEIKRTVAAPSVFIFPPSDEQLKSGTASVVCLLNNFYPREAKVQWKVDNALQSGNSQESVTEQDSKDSTYSLSSTLTLSKADYEKHKVYACEVTHQGLSSPVTKSFNRGEC | ADCC % Max lysis, HUT78 targets, NK cells Donor 3 (human CCR8 [1]): 25%; ADCC % Max lysis, HUT78 targets, NK cells Donor 4 (human CCR8 [1]): 28%; ADCC EC50, HUT78 targets, NK cells Donor 3 (human CCR8 [1]): 0.218 nM; ADCC EC50, HUT78 targets, NK cells Donor 4 (human CCR8 [1]): 0.053 nM; ADCP % Max of phagocytosis, HUT78 targets, monocyte-derived macrophages Donor 9 (human CCR8 [2]): 7.27%
2 | 0.004 µg/mL and 0.029 nM | 52 | 68 | 53 | 76 | 62 | 59 | 948 | 77 | 9.2 | binds | binds | binds | binds | binds | binds | binds | binds | 0.22 µg/mL and 1.46 nM |  | anti-CCR8 mAb 2-10 (antibody, V domains shown) VH: QVQVQQSGAELARPGASVKMSCKASGYTFTTYAMHWVKQRPGQGLEWIGHINPSSGYSNYNQKFKDKATLTADKSSSTAYMQLSSLTSEDSAVYYCARSEVRRGYFDVWGAGTTVTVSS VL: DIQMTQTTSSLSASLGDRVTISCRTSQDIRNYLNWYQQKPDGTVKLLISYTSRLHSGVPSRFSGSGSGTDYSLTISNLEQEDFATYFCQQGNTLPPTFGGGTRVEIK | 
3 | 0.462 nM and 0.069 µg/mL | 101 | 93 | 100 | 92 | 81 | 73 | 663 | 85.7 | 9.8 | binds | binds | binds | binds | binds | binds | binds | binds | 1.29 µg/mL and 8.62 nM | 0.051 µg/ml and 0.34 nM | anti-CCR8 mAb 2-1 (antibody, V domains shown) VH: KVQLQQSGPELVKPGASVKISCKTSGYTFTEYTIHWVQQIHGKSPEWIGGINPNGDTRYDQKFKGKATLTIDKSSSTAYMELRSLTSEDSAVYYCARVARFYGISPYAMDYWGQGTSVTVSS VL: DVVMTQTPLSLPVSLGDQASISCRCTQSLLHSNGDTYLHWYLQKPGQSPNLLIYKVSNRFSGVPDRFSGSGSGTDFTLKINRVEAEDLGVYFCSQSTHVPYTFGGGTNLEIK | IC50, CCL1 induced hCCR8 Gi2 signaling (BRET) at pH 7.4 (human CCR8 [16]): 0.059 µg/ml and 0.396 nM
4 | 0.143 µg/mL and 0.954 nM | 99 | 97 | 97 | 99 | 84 | 75 | 133 | 85.2 | 11.9 | binds | binds | binds | binds | binds | binds | binds | binds | 2.65 µg/mL and 15.2 nM | 0.414 µg/ml and 2.76 nM | anti-CCR8 mAb 2-2 (antibody, V domains shown) VH: QVQLKESGPGLVAPSQSLSITCTVSGLSMNDYVVTWIRQPPGKGLEWLGVIWGGGNTYYNSDLKSRLSITKDNSKSQVFFKMSSLQTDDTAVYYCARRHRDYALDYWGQGISVTVSS VL: DVVMTQTPLSLPVSLGDQASISCRSSQSLVYSNGNTYLHWYLQKPGQSPKLLIYKVSNRFSGVPDRFSGSGSGTDFTLKISRVEAEDLGVYFCSQSTYVPPTFGGGTKLEIK | IC50, CCL1 induced hCCR8 Gi2 signaling (BRET) at pH 7.4 (human CCR8 [16]): 0.359 µg/ml and 2.4 nM
5 | 0.046 µg/mL and 0.306 nM | 104 | 46 | 28 | 80 | 57 | 45 | 855 | 56.2 | 4.78 | binds | binds | binds | binds | binds | binds | binds | binds | 0.6 µg/mL and 4.01 nM |  | anti-CCR8 mAb 2-4 (antibody, V domains shown) VH: EVQLQQSGPELVKPGASVKISCKTSGYTFTEYTIHWVKQSHGESLEWVGGINPNNGNTRYDQKFKGKATLTIDKSSSPAYMELRSLTSEDSAVYYCARVARSSGSGPYAMDYWGQGTSVTVSS VL: DVVMTQTPLSLPVSLGDQASISCRCTQSLLHTNGDTYLHWYLQKPGQSPKLLIYKVSNRFSGVPDRFSGSGSGTDFTLKISRVEAEDLGVYFCSQSTHVPYTFGGGTKLEIK | 
